Assay [1] addresses T1, human FAP (fibroblast activation protein) (human, UniProt Q12884 26-760, limits assumed).
T1 construct: Protein immobilised on the CM5 chip or premixed with Fab in SPR; also called huFAP; hFAP
T1 sequence: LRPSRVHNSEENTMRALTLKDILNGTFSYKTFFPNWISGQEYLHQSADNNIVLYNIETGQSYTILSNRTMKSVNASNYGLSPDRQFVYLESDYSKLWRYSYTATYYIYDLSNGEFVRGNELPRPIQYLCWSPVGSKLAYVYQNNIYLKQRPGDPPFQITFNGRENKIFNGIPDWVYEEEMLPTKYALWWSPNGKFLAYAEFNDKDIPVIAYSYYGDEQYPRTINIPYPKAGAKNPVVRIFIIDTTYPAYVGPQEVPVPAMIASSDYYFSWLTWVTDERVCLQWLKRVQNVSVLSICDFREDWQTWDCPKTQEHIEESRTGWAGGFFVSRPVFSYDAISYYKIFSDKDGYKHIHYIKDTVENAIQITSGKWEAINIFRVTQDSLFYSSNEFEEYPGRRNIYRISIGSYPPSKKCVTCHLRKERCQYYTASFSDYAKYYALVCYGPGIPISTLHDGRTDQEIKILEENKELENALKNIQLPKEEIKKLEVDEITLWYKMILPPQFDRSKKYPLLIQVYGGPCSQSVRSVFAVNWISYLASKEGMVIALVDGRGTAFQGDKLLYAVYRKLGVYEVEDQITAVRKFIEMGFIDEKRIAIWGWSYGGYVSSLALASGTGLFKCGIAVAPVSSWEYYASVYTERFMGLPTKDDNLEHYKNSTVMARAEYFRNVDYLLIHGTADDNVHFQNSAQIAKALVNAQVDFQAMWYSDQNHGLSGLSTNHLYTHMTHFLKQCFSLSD
The assay is described as follows: SPR (Biacore), human FAP immobilised on CM5 chip by amine coupling, Fab as analyte, 2-fold dilution series from 500 nM. On the procedure: (§1) 2.5 μg/mL human FAP was immobilized to flow cells 1-4 on CM5 chip by amine coupling. […] 5 μg/mL mouse FAP was immobilized to flow cells 5-8 on CM5 chip by amine coupling. […] Regeneration was done with 2.5 mM NaOH, 1M NaCl.
Background: In SPR one partner is held on a chip, and binding of the other changes the refractive index at the surface.

For another assay, the target named is T2, mouse FAP (mouse, UniProt P97321 26-761, limits assumed).
T2 construct: Protein immobilised on the CM5 chip in SPR
T2 sequence (looked up): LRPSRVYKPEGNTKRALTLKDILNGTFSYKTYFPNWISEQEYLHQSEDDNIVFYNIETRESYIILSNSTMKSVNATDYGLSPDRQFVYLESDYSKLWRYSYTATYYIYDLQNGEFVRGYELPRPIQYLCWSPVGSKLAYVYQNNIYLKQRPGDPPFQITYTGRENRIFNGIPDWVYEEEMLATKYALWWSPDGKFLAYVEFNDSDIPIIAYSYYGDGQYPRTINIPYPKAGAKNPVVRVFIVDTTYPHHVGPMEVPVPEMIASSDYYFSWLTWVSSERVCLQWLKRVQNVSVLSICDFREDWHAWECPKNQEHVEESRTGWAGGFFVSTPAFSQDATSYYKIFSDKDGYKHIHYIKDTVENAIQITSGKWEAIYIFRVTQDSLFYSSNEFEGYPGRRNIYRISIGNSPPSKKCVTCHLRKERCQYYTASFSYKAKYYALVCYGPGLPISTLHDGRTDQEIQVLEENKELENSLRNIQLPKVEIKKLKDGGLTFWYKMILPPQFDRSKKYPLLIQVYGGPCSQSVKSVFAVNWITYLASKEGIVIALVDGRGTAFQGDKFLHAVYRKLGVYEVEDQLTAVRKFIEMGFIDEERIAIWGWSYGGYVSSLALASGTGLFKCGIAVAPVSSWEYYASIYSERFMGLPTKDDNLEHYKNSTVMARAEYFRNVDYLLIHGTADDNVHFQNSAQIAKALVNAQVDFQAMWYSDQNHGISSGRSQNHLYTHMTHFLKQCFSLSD
The assay is described as follows: SPR (Biacore), mouse FAP immobilised on CM5 chip by amine coupling, Fab as analyte, 2-fold dilution series from 500 nM. On the procedure: as §1

The target of another assay is T3, human DPP4 (human, UniProt P27487 1-766).
T3 construct: whole, on cells; Transiently expressed in HEK cells; also called hDPP4; dipeptidyl peptidase IV
The assay is described as follows: IgG staining of HEK cells transiently expressing the construct. The text has this:
The constructs were designed on the DPP4 backbone and different FAP fragments were introduced to replace the corresponding DPP4 fragment as shown in FIG. 13D. BFP was used as a marker of transfection and His-tag to confirm expression.
The constructs were transiently expressed in HEK cells and the different IgGs were used to stain the cells.

T3 sequence (P27487 whole entry): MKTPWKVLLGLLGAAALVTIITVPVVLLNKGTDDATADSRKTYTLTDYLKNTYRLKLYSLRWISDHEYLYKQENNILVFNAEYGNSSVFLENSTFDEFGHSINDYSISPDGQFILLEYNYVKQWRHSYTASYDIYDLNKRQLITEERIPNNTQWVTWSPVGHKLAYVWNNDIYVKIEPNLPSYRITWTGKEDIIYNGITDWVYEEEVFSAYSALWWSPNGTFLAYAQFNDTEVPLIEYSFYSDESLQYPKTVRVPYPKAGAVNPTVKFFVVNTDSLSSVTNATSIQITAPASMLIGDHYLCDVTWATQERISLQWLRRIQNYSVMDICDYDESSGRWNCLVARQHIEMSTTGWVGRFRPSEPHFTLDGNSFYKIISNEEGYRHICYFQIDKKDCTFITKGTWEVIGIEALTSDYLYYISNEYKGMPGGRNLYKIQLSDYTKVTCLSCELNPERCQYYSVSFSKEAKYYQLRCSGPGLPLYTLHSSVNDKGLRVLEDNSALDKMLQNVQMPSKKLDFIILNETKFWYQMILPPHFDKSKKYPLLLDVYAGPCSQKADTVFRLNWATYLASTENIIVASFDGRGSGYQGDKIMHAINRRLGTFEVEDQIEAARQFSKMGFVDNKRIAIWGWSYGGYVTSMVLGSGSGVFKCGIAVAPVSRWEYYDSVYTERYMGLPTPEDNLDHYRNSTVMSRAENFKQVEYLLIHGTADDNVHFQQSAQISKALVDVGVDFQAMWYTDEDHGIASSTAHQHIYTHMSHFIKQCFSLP

B1: A07 Fab (Fab, V domains shown)
VH: QVQLVQSGAEVKKPGSSVKVSCKASGGTFSSYAISWVRQAPGQGLEWMGGIIPIFGTANYAQKFQGRVTITADESTSTAYMELSSLRSEDTAVYYCASPRDCSSTSCYAGIDAFDIWGQGTMVTVSS
VL: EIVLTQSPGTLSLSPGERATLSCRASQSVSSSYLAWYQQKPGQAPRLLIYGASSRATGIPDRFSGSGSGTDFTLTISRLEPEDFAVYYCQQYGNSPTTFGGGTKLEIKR
Broadly, the Kd is the free concentration of one partner at which half of the binding sites on the other are occupied at equilibrium, for simple one-to-one binding. As for B1, the Kd stood at 757 nM in assay [1] and 330 nM in the assay with mouse FAP.

B2: E07 IgG (antibody, V domains shown)
VH: EVQLLESGGGLVQPGGSLRLSCAASGFTFKSYVMSWVRQAPGKGLEWVSAIVPSGGDTYYADSVKGRFTISRDNSKNTLYLQMNSLRAEDTAVYYCAKDYYGGWFDPWGQGTLVTVSS
VL: not shown
As to B2, the binding result with human DPP4 is listed as “no binding”.

The values above are taken from patent US20260124303A1 (MINK THERAPEUTICS, published 2026).
